Here are results for four molecules from patent publication US20260242735A1 (UNIVERSIT T BASEL, published 2026).

Among the targets are human CD33 Q236A (human, UniProt P20138 18-364); human CD33 S194A (human, UniProt P20138 18-364); human CD33 I227A (human, UniProt P20138 18-364); human CD33 P184A (human, UniProt P20138 18-364); human CD33 P235A (human, UniProt P20138 18-364); human CD33 E170A (human, UniProt P20138 18-364); human CD33 W179A (human, UniProt P20138 18-364); human CD33 R190A (human, UniProt P20138 18-364); human CD33 G172A (human, UniProt P20138 18-364); human CD33 Q204A (human, UniProt P20138 18-364); human CD33 Q213A (human, UniProt P20138 18-364); human CD33 A182S (human, UniProt P20138 18-364); human CD33 D205A (human, UniProt P20138 18-364); human CD33 T222A (human, UniProt P20138 18-364); human CD33 S178A (human, UniProt P20138 18-364); human CD33 P175A (human, UniProt P20138 18-364); human CD33 I199A (human, UniProt P20138 18-364); human CD33 T211A (human, UniProt P20138 18-364); human CD33 R225A (human, UniProt P20138 18-364); human CD33 A217S (human, UniProt P20138 18-364); human CD33 T226A (human, UniProt P20138 18-364).

What all share (test): alanine scan, flow cytometry, HEK293-T;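 note: antibody binding to each alanine-substituted CD33 mutant expressed transiently in HEK293-T, read as fluorescence minus background, mean of duplicates, relative to wild-type CD33 set as 100%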

Sequence of human CD33 T211A (P20138 18-364 T211A limits assumed): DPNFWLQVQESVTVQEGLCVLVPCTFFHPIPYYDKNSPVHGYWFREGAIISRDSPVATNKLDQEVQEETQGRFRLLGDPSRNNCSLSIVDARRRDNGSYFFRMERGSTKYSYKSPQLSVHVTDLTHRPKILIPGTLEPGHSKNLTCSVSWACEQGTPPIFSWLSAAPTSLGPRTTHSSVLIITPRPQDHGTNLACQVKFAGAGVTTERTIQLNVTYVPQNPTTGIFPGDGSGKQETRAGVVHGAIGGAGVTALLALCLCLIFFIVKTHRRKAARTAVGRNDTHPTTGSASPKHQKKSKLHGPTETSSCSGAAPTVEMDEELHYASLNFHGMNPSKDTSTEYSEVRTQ
Sequence of human CD33 E170A (P20138 18-364 E170A limits assumed): as the sequence (P20138 18-364 T211A limits assumed) above, with E153A, A194T counted along it
Sequence of human CD33 Q236A (P20138 18-364 Q236A limits assumed): as the sequence (P20138 18-364 T211A limits assumed) above, with A194T, Q219A counted along it
Sequence of human CD33 P175A (P20138 18-364 P175A limits assumed): as the sequence (P20138 18-364 T211A limits assumed) above, with P158A, A194T counted along it
Sequence of human CD33 W179A (P20138 18-364 W179A limits assumed): as the sequence (P20138 18-364 T211A limits assumed) above, with W162A, A194T counted along it
Sequence of human CD33 T226A (P20138 18-364 T226A limits assumed): as the sequence (P20138 18-364 T211A limits assumed) above, with A194T, T209A counted along it
Sequence of human CD33 S194A (P20138 18-364 S194A limits assumed): as the sequence (P20138 18-364 T211A limits assumed) above, with S177A, A194T counted along it
Sequence of human CD33 G172A (P20138 18-364 G172A limits assumed): as the sequence (P20138 18-364 T211A limits assumed) above, with G155A, A194T counted along it
Sequence of human CD33 T222A (P20138 18-364 T222A limits assumed): as the sequence (P20138 18-364 T211A limits assumed) above, with A194T, T205A counted along it
Sequence of human CD33 D205A (P20138 18-364 D205A limits assumed): as the sequence (P20138 18-364 T211A limits assumed) above, with D188A, A194T counted along it
Sequence of human CD33 A217S (P20138 18-364 A217S limits assumed): as the sequence (P20138 18-364 T211A limits assumed) above, with A194T, A200S counted along it
Sequence of human CD33 Q204A (P20138 18-364 Q204A limits assumed): as the sequence (P20138 18-364 T211A limits assumed) above, with Q187A, A194T counted along it
Sequence of human CD33 Q213A (P20138 18-364 Q213A limits assumed): as the sequence (P20138 18-364 T211A limits assumed) above, with A194T, Q196A counted along it
Sequence of human CD33 I199A (P20138 18-364 I199A limits assumed): as the sequence (P20138 18-364 T211A limits assumed) above, with I182A, A194T counted along it
Sequence of human CD33 I227A (P20138 18-364 I227A limits assumed): as the sequence (P20138 18-364 T211A limits assumed) above, with A194T, I210A counted along it
Sequence of human CD33 A182S (P20138 18-364 A182S limits assumed): as the sequence (P20138 18-364 T211A limits assumed) above, with A165S, A194T counted along it
Sequence of human CD33 R190A (P20138 18-364 R190A limits assumed): as the sequence (P20138 18-364 T211A limits assumed) above, with R173A, A194T counted along it
Sequence of human CD33 R225A (P20138 18-364 R225A limits assumed): as the sequence (P20138 18-364 T211A limits assumed) above, with A194T, R208A counted along it
Sequence of human CD33 P235A (P20138 18-364 P235A limits assumed): as the sequence (P20138 18-364 T211A limits assumed) above, with A194T, P218A counted along it
Sequence of human CD33 S178A (P20138 18-364 S178A limits assumed): as the sequence (P20138 18-364 T211A limits assumed) above, with S161A, A194T counted along it
Sequence of human CD33 P184A (P20138 18-364 P184A limits assumed): as the sequence (P20138 18-364 T211A limits assumed) above, with P167A, A194T counted along it
Description for human CD33 A182S: (§1) An alanine scan on human CD33 was performed to the determine the residues on CD33 that are involved in binding to the antibodies investigated. […] Briefly, a mutation library of CD33 was created by high-throughput, site-directed mutagenesis. Each residue was individually mutated to alanine, with alanine codons mutated to serine. The mutant library was arrayed in 384-well microplates and transiently transfected into HEK293-T. Following transfection, cells were incubated with the indicated antibodies (IgG or Fab) at concentrations pre-determined using an independent immunofluorescence titration curve on wild type CD33. […] Binding of each antibody to each mutant clone was determined in duplicates. For each point, background fluorescence was subtracted from the raw data, which were then normalized to antibody reactivity with wild type CD33.
(§2) Critical residues for antibody binding (outlined in dark grey) were residues whose mutations led to a binding of the test Abs of less than 20%. Additional secondary residues (outlined in light grey) were identified that led to a binding of the test Abs of between 20 and 40% as compared to the wild type CD33.
Description for human CD33 A217S: as §1, §2
Description for human CD33 D205A: as §1, §2
Description for human CD33 E170A: as §1, §2
Description for human CD33 G172A: as §1, §2
Description for human CD33 I199A: as §1, §2
Description for human CD33 I227A: as §1, §2
Description for human CD33 P175A: as §1, §2
Description for human CD33 P184A: as §1, §2
Description for human CD33 P235A: as §1, §2
Description for human CD33 Q204A: as §1, §2
Description for human CD33 Q213A: as §1, §2
Description for human CD33 Q236A: as §1, §2
Description for human CD33 R190A: as §1, §2
Description for human CD33 R225A: as §1, §2
Description for human CD33 S178A: as §1, §2
Description for human CD33 S194A: as §1, §2
Description for human CD33 T211A: as §1, §2
Description for human CD33 T222A: as §1, §2
Description for human CD33 T226A: as §1, §2
Description for human CD33 W179A: as §1, §2

B1: Refmab #1 (antibody, V domains shown)
VH: EVQLVQSGAEVKKPGSSVKVSCKASGYTITDSNIHWVRQAPGQSLEWIGYIYPYNGGTDYNQKFKNRATLTVDNPTNTAYMELSSLRSEDTAFYYCVNGNPWLAYWGQGTLVTVSS
VL: DIQLTQSPSTLSASVGDRVTITCRASESLDNYGIRFLTWFQQKPGKAPKLLMYAASNQGSGVPSRFSGSGSGTEFTLTISSLQPDDFATYYCQQTKEVPWSFGQGTKVEVK
notes: In the alanine scan antibodies were used as IgG or Fab; also called hP67.6
As to B1, the “Mean % WT Binding” value with human CD33 Q236A was 89.5%; with human CD33 S194A, 93.7%; with human CD33 I227A it was 86.7%; with human CD33 P184A, 82.9%; with human CD33 P235A, 81.4%; with human CD33 E170A it was 90.9%. Also, the “Mean % WT Binding” value came to 93.5% with human CD33 W179A; 96.6% with human CD33 R190A; 86% with human CD33 G172A; 93.7% with human CD33 Q204A; 95.3% in the experiment with human CD33 Q213A; 85.8% in the experiment with human CD33 A182S. The “Mean % WT Binding” value in the experiment with human CD33 D205A was 1.6%; with human CD33 T222A it was 88.7%; with human CD33 S178A it was 94%; with human CD33 P175A, 89.4%; with human CD33 I199A, 98.5%; in the experiment with human CD33 T211A, 82.4%. Also, the results for the “Mean % WT Binding” value with human CD33 R225A, with human CD33 A217S and with human CD33 T226A were 97.8%, 80.2% and 92%, respectively.

B2: Refmab #3 (antibody, V domains shown)
VH: QVQLVQSGAEVKKPGSSVKVSCKASGYTFTDYNMHWVRQAPGQGLEWIGYIYPYNGGTGYNQKFKSKATITADESTNTAYMELSSLRSEDTAVYYCARGRPAMDYWGQGTLVTVSS
VL: DIQMTQSPSSLSASVGDRVTITCRASESVDNYGISFMNWFQQKPGKAPKLLIYAASNQGSGVPSRFSGSGSGTDFTLTISSLQPDDFATYYCQQSKEVPWTFGQGTKVEIK
notes: In the alanine scan antibodies were used as IgG or Fab
Turning to B2, the “Mean % WT Binding” value was 104% with human CD33 Q236A; 101% with human CD33 S194A; 127% with human CD33 I227A; 103% in the experiment with human CD33 P184A; 120% in the experiment with human CD33 P235A; 148% with human CD33 E170A. In addition, the “Mean % WT Binding” value with human CD33 W179A worked out at 103%; with human CD33 R190A it was 124%; with human CD33 G172A, 107%; with human CD33 Q204A it was 126%; in the experiment with human CD33 Q213A it was 135%; in the experiment with human CD33 A182S it was 127%. In addition, the “Mean % WT Binding” value with human CD33 D205A amounted to 8.1%; with human CD33 T222A, 117%; with human CD33 S178A, 112%; with human CD33 P175A, 106%; with human CD33 I199A it was 112%; with human CD33 T211A it was 96.2%. Besides, the “Mean % WT Binding” value stood at 98.9% with human CD33 R225A, 148% in the experiment with human CD33 A217S and 100% in the experiment with human CD33 T226A.

B3: Refmab #4 (antibody, V domains shown)
VH: QVQLVQSGAEVKKPGESVKVSCKASGYTFTNYGMNWVKQAPGQGLEWMGWINTYTGEPTYADKFQGRVTMTTDTSTSTAYMEIRNLGGDDTAVYYCARWSWSDGYYVYFDYWGQGTSVTVSS
VL: DIVMTQSPDSLTVSLGERTTINCKSSQSVLDSSTNKNSLAWYQQKPGQPPKLLLSWASTRESGIPDRFSGSGSGTDFTLTIDSPQPEDSATYYCQQSAHFPITFGQGTRLEIK
notes: as for B2
As for B3, the “Mean % WT Binding” value with human CD33 Q236A turned out to be 103%; in the experiment with human CD33 S194A, 79%; with human CD33 I227A, 78.7%; with human CD33 P184A, 79.4%; with human CD33 P235A, 101%; in the experiment with human CD33 E170A it was 95.5%. The “Mean % WT Binding” value with human CD33 W179A came out at 83.1%; with human CD33 R190A it was 109%; with human CD33 G172A, 90.7%; in the experiment with human CD33 Q204A, 99.8%; with human CD33 Q213A it was 103%; with human CD33 A182S, 108%. The “Mean % WT Binding” value was determined as 0.1% in the experiment with human CD33 D205A; 109% with human CD33 T222A; 101% with human CD33 S178A; 106% with human CD33 P175A; 114% with human CD33 I199A; 79.4% with human CD33 T211A. Moreover, the “Mean % WT Binding” value with human CD33 R225A amounted to 108%; with human CD33 A217S it was 61.1%; with human CD33 T226A, 91.9%.

B4: Refmab #2 (antibody, V domains shown)
VH: QVQLVQSGAEVKKPGSSVKVSCKASGGTFSDYAISWVRQAPGQGLEWMGRIIPILGVADYAQKFQGRVTITADKSTRTAYMELSSLRSEDTAVYYCARNWADAFDIWGQGTMVTVSS
VL: DIQLTQSPSSLSASVGDRVTITCRASQGISSVLAWYQQKPGKAPKLLIYDASSLESGVPSRFSGSGSGTDFTLTISSLQPEDFATYYCQQFDSSITFGQGTKLEIK
notes: as for B2
With B4, the “Mean % WT Binding” value in the experiment with human CD33 Q236A amounted to 111%; with human CD33 S194A it was 112%; with human CD33 I227A, 110%; in the experiment with human CD33 P184A, 111%; with human CD33 P235A it was 108%; in the experiment with human CD33 E170A, 123%. The “Mean % WT Binding” value came out at 113% with human CD33 W179A; 114% with human CD33 R190A; 109% with human CD33 G172A; 112% with human CD33 Q204A; 115% with human CD33 Q213A; 115% with human CD33 A182S. The “Mean % WT Binding” value with human CD33 D205A worked out at 2.8%; with human CD33 T222A it was 121%; in the experiment with human CD33 S178A, 113%; with human CD33 P175A, 103%; with human CD33 I199A, 125%; with human CD33 T211A, 111%. Moreover, the “Mean % WT Binding” value came out at 123% with human CD33 R225A, 109% with human CD33 A217S and 112% with human CD33 T226A.
